According to the DeepSol protein solubility set:

Assay: soluble on expression in E. coli; label from the status in PepcDB or PDB records

**Q.** Which “soluble on expression in E. coli” value does the source give for “MEIRVANKYALGKKLGSGSFGDIYVAKDIVTMEEFAVKLESTRSKHPQLLYESKLYKILGGGIGVPKVYWYGIEGDFTIMVLDLLGPSLEDLFTLCNRKFSLKTVLMTADQMLNRIEYVHSKNFIHRDIKPDNFLIGRGKKVTLIHIIDFGLAKKYRDSRSHTHIPYKEGKNLTGTARYASINTHLGIEQSRRDDIEALGYVLMYFLRGSLPWQGLKAISKKDKYDKIMEKKISTSVEVLCRNASFEFVTYLNYCRSLRFEDRPDYTYLRRLLKDLFIREGFTYDFLFDWTCVYASEKDKKKMLENKNRFDQTADQEGRVKQN” here?
**A.** Its value is “not soluble”.

**Q.** With “STMLRVRSRDGLERVSVDGPHITVSQLKTLIQDQLQIPIHNQTLSTNRNLLLAKSPSDFLAFTDMADPNLRISSLNLAHGSMVYLAYEGERTIRGGPAVTPAGSFGRKMTVEDLIARQMRVGRQEKAHCDSVSFDRDCANAFQHFVNESLAFAVKRGGFMYGNVSEDGQVEVNFIYEPPQQGMEDNLILMRDSEEEKRVDAIALGLGMRRVGFIFNQTVTQDKKEYTLSNVEVLLAAQLHAESELKEWVTAVVKLEINEDGGADVHFEPFQMSDMCVRLFKEGWFETEIGPEDDPKLSKLKKEVVVGVKDVKEVDNDFFLVLVKILDHQGPLSCTFPIENRNTQTTMRALKTHMERARSLPFVKRISDFHLLLFVAQFLDVSSDVPALAECVRLQSHVPEGYELLIDSMANTS” as the sequence, how does the “soluble on expression in E. coli” value read?
**A.** Its value is “soluble”.

**Q.** With “MLYINSFLDRMGEIIRGEKSVEEADKLLDQKNIFEMFRSDCEEILNLYKSGKAEKEEVQRNFYLLKTYVVSQLSIHFERLKEFAESKGFKIEKKLDPEVINEIALYIDRVEKEV” as the sequence, how does the “soluble on expression in E. coli” value read?
**A.** Its value is “soluble”.

**Q.** For “MRVAFFGTPLWAVPVLDALRKRHQVVLVVSQPDKPQGRGLRPAPSPVARYAEAEGLPLLRPARLREEAFLEALRQAAPEVAVVAAYGKLIPKEALDIPPHGFLNLHPSLLPKYRGAAPVQRALLAGERETGVSIMRLDEGLDTGPLYAVWRTPILPDEDAVALGNRLRDKGVELLLEVLERLPELTPRPQEGEASYAPPLSKEEGRLDFGESAEALYRRHRAVQPWPGSYFFHRGQRVKALRLRPEPGEGEPGVVARVGPEGVVVGTASGLLLLLEVQPEGRRAMPAADWARGYGVAPGTRLGQV”, which “soluble on expression in E. coli” value is on record?
**A.** The value was “soluble”.

**Q.** With “MGSDKIHHHHHHMSETELRKRQAQFTRELHGDDIGKKTGLSALMSKNNSAQKEAVQKYLRNWDGRTDKDAEERRLEDYNEATHSYYNVVTDFYEYGWGSSFHFSRFYKGESFAASIARHEHYLAYKAGIQRGDLVLDVGCGVGGPAREIARFTGCNVIGLNNNDYQIAKAKYYAKKYNLSDQMDFVKGDFMKMDFEENTFDKVYAIEATCHAPKLEGVYSEIYKVLKPGGTFAVYEWVMTDKYDENNPEHRKIAYEIELGDGIPKMFHVDVARKALKNCGFEVLVSEDLADNDDEIPWYYPLTGEWKYVQNLANLATFFRTSYLGRQFTTAMVTVMEKLGLAPEGSKEVTAALENAAVGLVAGGKSKLFTPMMLFVARKPENAETPSQTSQEATQ” as the sequence, how does the “soluble on expression in E. coli” value read?
**A.** Its value is “not soluble”.

**Q.** For “MSERQSKYFDYQGIVISSTGQDNQDSETDLVYLIQAHGKAAPKNIMYGVSKCAFVPTNLERNFDNIEEAKNLERRSKIPLKFGEVILWNESDCDHDKRIILHIKREKPIYEASSSRNGLILKVGGVIQPTSTTSFWTPLCTVTMPETEATRAEPDVWLYAWIRFETTMKSGLDPFNMTATFESFDSCDPSDQARVCEAPWNAGSPDSKFGVWRPDPKPADSDDEIDIEPREGWHLPEDKWAEVIKMQLGLYVGERLLICKELSQFDFIIPLQKPFSRGTDKTLIYPAVGEYFHFSAIWSMQHNGFLIYELQPVPLLRQHVTSVNGNLLTRVVPASIRGLFVDKEGTLGLIDDPHHLLSFFEFHPAGYEFLKAMAEVRAVRTSENKSVRYRIVRTSGMSIFENWLRDTQFVVGPVKGIRINEDTVICAKHPNVYFKIPNNLKEGIPIGGGVQFVGKRQAGVDSEIMITECSPCPAFTCKNYSVSGDTRLFQVYLKPNCDHEQLAESDSMGFVDFRELETPCRGKFLAWVRESITVNDCRRAATIMEVCSTAICPPLIAMSANSSRATSARTTPAGSSIGSRSSIQSRASAATSVSSNRFVGPSSRRTPSGTPQSSTSSRV”, which “soluble on expression in E. coli” value is on record?
**A.** The value was “not soluble”.

**Q.** Which “soluble on expression in E. coli” value does the source give for “MAHHHHHHMSKAVQQIFEDYNRSRAQFTQSIYDMCLKAHHMEVIISTDIIMLLRPLILDKVPIVQQNATQILGKMASHSEEVALTILQNDVLPHLVYCLKHENKNYRKNCANTLRCLASHNAKLANLVAEEENCIDNLVDSLDEYDVRLKEACLNALCAIGKHDVDLSKQLMAKGIIPLVILSLQEKDTNLVRSSLNILTELSKHTNEIAKEVVDNNALPHLIKFLDHTDVQVKRYACNCLAQIAKHKEELTELIIESDVFPRVIYLLNDSDDVVKKNCANCLKEMSKHNEDICKIIARAGSLPFLCECIEQSSKGAVKLPAILCIGFIASFSESLSLNIILSNAIPILKKCLIGEEEDYIKASCVWAVGNIGKHSSSHAKKLSDENLLIILVNLYNANDSSDDLKKKVKLSFKGVIQKVTDLESLEPVFLKATAKLAKYCICQFAKIIPKSPAHKKAFIKSGCLKRLQVGRQSSCAIFPRCRVTVLPPYRPSAHPCTPSPLHRK” here?
**A.** Its value is “not soluble”.

**Q.** Which “soluble on expression in E. coli” value does the source give for “MGSDKIHHHHHHMSNKLTYIVASGDTYTSIVNKINQSTPLTVSQLADANPSIQANQLQIGQALDIPLSTDGLIPDDNPALLTPAAEFMGYWYPYSASCPKNATLSVALYGWGPQKVIEWGKQADVQSHLNGEKYLSFGGGSESGKFTEQALNEITTAITQGQIKGYDGIAYDVEVADANLGAQFANSFEAAKACGFKVLVTISHSAPYDVADKDQLMKSFFINPHIDILSPQLYSKGDESQNDYALTSGSSITWRDYASTKAAIVPSIVHASYYEAAKIYFKNQGVELSGYLQWK” here?
**A.** Its value is “not soluble”.

**Q.** Which “soluble on expression in E. coli” value does the source give for “DQQYVKNFLLLVKSDNPEEQAAATETSIPRKLREMRMASTIDSTLSKDDILTRYLNLVHLGNGAFGVEAAARTYFGKGAPELSLAQSAMFAGIVQSSSYLDPYTNPDAVMDRRNVVLDTMAANGYATPEDVAAAKAEPLGVLEQPQGLPNGCITAGDNGFFCDYVLKYLSEKGLSTDQLTQGSYTINTTLDPDVQQAAHAAAAGQVNSHTFGVANVMNIVEPGKDSRKILAMTSSRDYGLDLDAGQTVLPQPTSLVGNGAGSVFKIFTAAVALQQGYGLDTQLQVPPRYEAKGMGDGGAEGCGAGTYCVENSGSYAPQMSLRDALAFSPNTPFVQMIEKVGVKDVVDTSVKLGLRSYANPGTFNKDNSIADYVKEHNLGSYTLGPTAVNPLELSNVAASLASDGMWCEPSPITTVTDAKGNEVFLDRPACEQAIDPEIAQALSAGLSQDTIKGTGAQAAKSLGFSAPTAAKTGTTESHSS” here?
**A.** The value was “not soluble”.

**Q.** Which “soluble on expression in E. coli” value does the source give for “MAIKDAIEKIVSYFDADEVTDHEDVAKERPVKVQKTEQTPSQQQRKPERPQETVPPRRQHIKSDVQETQVLRSLSLSRSQVNQGSQQMNTTKTTIAIKYPKKYEDAQEIVELLIENECVLIDFQYMLEAQARRCLDFIDGASKVLTGNLQKVGSSMYLLTPINVVVDIEEIGLSHGNQESTFDFDMKRRLEHHHHHH” here?
**A.** The value was “not soluble”.

**Q.** Which “soluble on expression in E. coli” value does the source give for “LYAHAVESLRHEITAVLLIAKPEDEVLLRLESPGGVVHGYGLAASQLRRLRERNIPLTVAVDKVAASGGYMMACVADKIVSAPFAVIGSVGVVAEVPNIHRLLKKHDIDVDVMTAGEFKRTVTFMGENTEKGKQKFRQELEETHQLFKQFVSENRPGLDIEKIATGEHWFGRQALALNLIDEISTSDD” here?
**A.** The value was “not soluble”.

**Q.** For “MAHHHHHHMSTMDVPGTAIEQYFNQLIQMRLLTQVIVSDTRGDTTVACLMGLEHGGDAVVSSSEDTYGVAESIMESNVALSGARCFQNLDQLNLGVPLYVSFQYHDDVVVQTLDGCCMLTLIGSRSQGHFVGGLLTLLDQIRSCEAYQELLTQTQLCFR”, which “soluble on expression in E. coli” value is on record?
**A.** The value was “not soluble”.

**Q.** Which “soluble on expression in E. coli” value does the source give for “MNTIVVAQLQRQFQDYIVSLYQQGFLDNQFSELRKLQDEGTPDFVAEVVSLFFDDCSKLINTMSISLERPDNVDFKQVDSGVHQLKGSSSSLCFVLSVGARRVKNVCISFKECCDVQNREGYSSNSHTNCDNDIWHRCLRCLQQVDYEYKMLKTKLQDLFNVSFKLCENLLVLLLEKQILQAGGTIPQVDIN” here?
**A.** The value was “soluble”.

**Q.** Which “soluble on expression in E. coli” value does the source give for “DPGERLYDLNMPAYVKFNYMAEREDELSLIKGTKVIVMEKCSDGWWRGSYNGQVGWFPSNYVTEEGDSPLGDHVG” here?
**A.** The value was “soluble”.

**Q.** Which “soluble on expression in E. coli” value does the source give for “MTAPRKTRTEVITTVLNLERTLAQTVLGINDENLRVLDNQIDCDIHVRGTHVELTGPAHEVSRASKIFEELQAIARRGHVISPETVKNVISMINVETPQTVSEILTGDILARRGKVIRPKTLGQKHYVDAIDTNTIVFGLGPAGSGKTYLAMAKAVQALQSKQVSRIILTRPAVEAGEKLGFLPGTLNEKIDPYLRPLHDALRDMVEPEVIPKLMEAGIVEVAPLAYMRGRTLNDAFVILDEAQNTTPAQMKMFLTRLGFGSKMVVTGDITQVDLPGGQKSGLRLVRHILRGVDDVHFSELTSSDVVRHQLVGHIVDAYEDYEEREARELKRKRQETRP” here?
**A.** Its value is “not soluble”.

**Q.** With “MAVLYKSFQSVLEDKNHKKMFHPRVIYTANISTSQIAKEIAAYSSLSPGDVKNTLDNLVTVMGQHLQASESVSLDGFGTFRMVMKSNGKGVETSEEVSAAQASLTVRFLPNFTKNPDRTTATRSLVTGAKCVRFDRTDTPASGSGNTNKPGGGDGGEGGGEEAPDPTV” as the sequence, how does the “soluble on expression in E. coli” value read?
**A.** Its value is “not soluble”.

**Q.** Which “soluble on expression in E. coli” value does the source give for “MGHHHHHHSHMETIGAKALEDFADNIKNDPDKEYNMPKDGTVHELTSNAILFLQQLLDFQETAGAMLASQETSSSATSYSSEFSKRLLSTYICKVLGNLQLNLLSKSKVYEDPALSAIFLHNNYNYILKSLEKSELIQLVAVTQKTAERSYREHIEQQIQTYQRSWLKVTDYIAEKNLPVFQPGVKLRDKERQIIKERFKGFNDGLEELCKIQKAWAIPDTEQRDRIRQAQKTIVKETYGAFLQKFGSVPFTKNPEKYIKYGVEQVGDMIDRLFDTSA” here?
**A.** The value was “not soluble”.

**Q.** For “SPYVFSFKMPQEQGQMFQYYPVYMVLPWEQPQQTVPRSPQQTRQQQYEEQIPFYAQFGYIPQLAEPAISGGQQQLAFDPQLGTAPEIAVMSTGEEIPYLQKEAINFRHDSAGVFMPSTSPKPSTTNVFTSAVDQTITPELPEEKDKTDSLREP”, which “soluble on expression in E. coli” value is on record?
**A.** The value was “soluble”.

**Q.** For “MQKFDTRTFQGLILTLQDYWARQGCTIVQPLDMEVGAGTSHPMTCLRELGPEPMAAAYVQPSRRPTDGRYGENPNRLQHYYQFQVVIKPSPDNIQELYLGSLKELGMDPTIHDIRFVEDNWENPTLGAWGLGWEVWLNGMEVTQFTYFQQVGGLECKPVTGEITYGLERLAMYIQGVDSVYDLVWSDGPLGKTTYGDVFHQNEVEQSTYNFEYADVDFLFTCFEQYEKEAQQLLALENPLPLPAYERILKAAHSFNLLDARKAISVTERQRYILRIRTLTKAVAEAYYASREALGFPMCNKDKLEHHHHHH”, which “soluble on expression in E. coli” value is on record?
**A.** The value was “not soluble”.

**Q.** For “MVVYDCLTDEDFLQKSEHGIGKKAIYYFYGERCPSCESIKPLFDDLCKKYEKTALVYTYPCYNDDQLTGDAFAVNAVPTFVVMNNGEEVTRHVGAEAEKVQELFEKYAV”, which “soluble on expression in E. coli” value is on record?
**A.** Its value is “not soluble”.

**Q.** For “MRQRSSYPKPFKAQVVQECLQPGATVSSVAINHGINANVIRKWLPLYRDLPAAASLPAFVPLKAAPKRPVEASVIIELPVAGQVITVKWPASDPEGCAQFIRAFAQLEHHHHHH”, which “soluble on expression in E. coli” value is on record?
**A.** The value was “not soluble”.
